Columns and labels:
[1] = biological target: T1, Recombinant extracellular domain of human RON (rhRON) (human, UniProt Q04912); assay: SPR; ProteOn; rhRON immobilised on GLC chip; 1/10 diluted crude periplasmic extracts injected 2 min at 45 µl/min; Langmuir model, off-rate only; details: one partner purified
T1 construct: recepteur d'origine nantais (RON) receptor tyrosine kinase, human, recombinant extracellular domain; also called recepteur d'origine nantais; source: bought: R&D Systems

[2] = biological target: T2, RON endogenously expressed on T-47D human breast cancer cells (Homo sapiens (T-47D cell line), UniProt Q04912); assay: cell-based or functional assay
[3] = biological target: T1, Recombinant extracellular domain of …; assay: ELISA; ligand competition: rhRON (1 µg/ml) immobilised directly; dilution series of purified nanobodies starting at 1 µM added together with 2 nM biotinylated MSP; MSP detected by extravidin peroxidase; details: both partners purified
[4] = biological target: T2, RON endogenously expressed on T-47D …; assay: flow cytometry on cells; dilution series of purified nanobodies starting at 500 nM on T-47D cells endogenously expressing RON; anti-FLAG then anti-mouse APC; details: one partner purified
[5] = biological target: T1, Recombinant extracellular domain of …; assay: ELISA; rhRON (1 µg/ml) immobilised directly on 384-well plates; crude periplasmic extracts of nanobodies; detection by anti-FLAG HRP; positive if OD450 ratio to a negative control nanobody ≥2; details: one partner purified
[6] = biological target: T3, full-length human RON expressed on HEK293T cells (HEK293T-hRON) (Homo sapiens, UniProt Q04912); assay: flow cytometry on cells; 1/10 diluted crude periplasmic extracts on HEK293T-hRON and HEK293T cells; anti-FLAG then anti-mouse APC; positive if normalised ratio ≥2; details: partners not purified
T3 construct: also called cell-expressed RON; source: HEK293T, transiently transfected (pcDNA3.1), on cells
T3 sequence (Q04912 25-1400): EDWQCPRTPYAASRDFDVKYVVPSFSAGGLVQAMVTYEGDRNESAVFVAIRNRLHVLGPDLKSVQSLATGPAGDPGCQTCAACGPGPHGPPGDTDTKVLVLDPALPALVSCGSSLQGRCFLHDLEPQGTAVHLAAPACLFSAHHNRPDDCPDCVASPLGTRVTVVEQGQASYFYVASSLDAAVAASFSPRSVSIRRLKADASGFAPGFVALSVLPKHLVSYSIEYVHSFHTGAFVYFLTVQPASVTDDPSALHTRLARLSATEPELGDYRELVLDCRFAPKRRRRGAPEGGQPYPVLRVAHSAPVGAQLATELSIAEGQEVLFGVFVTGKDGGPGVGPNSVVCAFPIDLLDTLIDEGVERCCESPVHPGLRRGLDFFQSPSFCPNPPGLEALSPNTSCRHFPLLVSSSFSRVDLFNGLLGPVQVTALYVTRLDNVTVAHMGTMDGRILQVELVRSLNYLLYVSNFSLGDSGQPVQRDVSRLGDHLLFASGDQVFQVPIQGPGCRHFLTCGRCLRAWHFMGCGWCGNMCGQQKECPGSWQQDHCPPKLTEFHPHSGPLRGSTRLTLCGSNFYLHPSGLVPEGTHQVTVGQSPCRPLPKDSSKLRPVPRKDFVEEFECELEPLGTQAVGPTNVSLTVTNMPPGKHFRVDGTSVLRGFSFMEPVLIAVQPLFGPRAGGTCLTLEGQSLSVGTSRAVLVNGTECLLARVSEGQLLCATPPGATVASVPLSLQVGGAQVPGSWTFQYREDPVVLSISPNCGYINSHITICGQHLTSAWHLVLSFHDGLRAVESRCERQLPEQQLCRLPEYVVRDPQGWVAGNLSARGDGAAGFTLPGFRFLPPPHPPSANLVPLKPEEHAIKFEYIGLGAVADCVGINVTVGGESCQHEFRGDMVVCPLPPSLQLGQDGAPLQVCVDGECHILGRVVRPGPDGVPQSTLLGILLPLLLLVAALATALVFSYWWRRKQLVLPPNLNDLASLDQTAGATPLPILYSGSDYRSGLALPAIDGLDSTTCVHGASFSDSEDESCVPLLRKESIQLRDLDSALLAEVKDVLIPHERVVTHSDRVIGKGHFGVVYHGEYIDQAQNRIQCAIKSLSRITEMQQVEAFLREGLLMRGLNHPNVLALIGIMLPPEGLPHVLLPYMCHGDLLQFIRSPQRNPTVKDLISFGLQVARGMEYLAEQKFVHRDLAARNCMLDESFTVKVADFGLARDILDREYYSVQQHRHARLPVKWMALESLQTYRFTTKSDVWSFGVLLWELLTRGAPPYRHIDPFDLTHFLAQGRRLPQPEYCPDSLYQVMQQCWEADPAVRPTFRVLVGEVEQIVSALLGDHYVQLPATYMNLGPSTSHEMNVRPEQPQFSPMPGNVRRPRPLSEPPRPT

T2 sequence (Q04912 25-1400): as above
T1 sequence (Q04912 25-957): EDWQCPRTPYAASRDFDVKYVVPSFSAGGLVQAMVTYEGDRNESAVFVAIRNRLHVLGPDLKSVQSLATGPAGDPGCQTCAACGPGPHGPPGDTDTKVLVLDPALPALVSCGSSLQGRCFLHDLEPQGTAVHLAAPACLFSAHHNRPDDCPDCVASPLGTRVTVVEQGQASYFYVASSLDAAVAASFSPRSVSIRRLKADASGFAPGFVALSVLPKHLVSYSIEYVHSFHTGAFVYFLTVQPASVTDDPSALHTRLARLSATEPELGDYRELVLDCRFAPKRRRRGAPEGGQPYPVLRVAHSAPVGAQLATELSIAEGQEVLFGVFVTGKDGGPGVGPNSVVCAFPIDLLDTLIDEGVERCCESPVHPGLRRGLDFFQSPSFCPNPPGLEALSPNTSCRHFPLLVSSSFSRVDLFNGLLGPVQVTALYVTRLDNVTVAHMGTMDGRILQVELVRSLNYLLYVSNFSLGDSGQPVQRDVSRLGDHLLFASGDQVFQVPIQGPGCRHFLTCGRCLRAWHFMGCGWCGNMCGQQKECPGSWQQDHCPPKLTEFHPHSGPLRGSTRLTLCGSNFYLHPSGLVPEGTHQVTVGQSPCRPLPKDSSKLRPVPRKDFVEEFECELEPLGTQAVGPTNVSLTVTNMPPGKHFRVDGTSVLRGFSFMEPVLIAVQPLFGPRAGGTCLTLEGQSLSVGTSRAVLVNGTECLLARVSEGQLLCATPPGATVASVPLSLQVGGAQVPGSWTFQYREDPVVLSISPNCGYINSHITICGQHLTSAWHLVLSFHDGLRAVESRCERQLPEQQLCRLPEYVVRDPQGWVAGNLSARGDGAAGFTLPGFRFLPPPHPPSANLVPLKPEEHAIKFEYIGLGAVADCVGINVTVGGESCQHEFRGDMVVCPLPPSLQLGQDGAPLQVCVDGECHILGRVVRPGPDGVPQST

Row | Binder | koff [1] | IC50 (M) inhibition of ERK phosphorylation induced by 1 nM MSP through RON on T-47D cells; purified nanobody, HTRF phospho-ERK [2] | maximum inhibition (efficacy) of MSP-induced ERK phosphorylation in T-47D cells [2] | IC50 [3] | maximum inhibition of MSP binding [3] | EC50 [4] | binding result [5] | binding result [6]
1 | nanobody NGS00020 (VHH, majority-rule consensus of an NGS cluster; One of the 28 randomly selected NGS clusters; source: E. coli, crude periplasmic extract (synthetic DNA); not shown: FLAG3, C-terminal, kept) VHH: EVQLVESGGALVQAGDSLRVSCVASGRTFSRYAMGWFRQAPGKQREFVAAISWDGDSTSYANSLKGRFTISRDNAKNTGYLYMNSLIPEDTAVYYCAADRGRTTAWTYWGEGTLVTVSS |  |  |  |  |  |  | no binding | no binding
2 | nanobody 8A12 (VHH, From a llama immunised with rhRON; found by conventional screening and by NGS; source: E. coli, crude periplasmic extract; E. coli, purified; not shown: FLAG3, C-terminal, kept) VHH: EVQLVESGGGLVQAGGSLRVSCAASGLTFSRYNMGWFRQAPGKERDFVAAISSSDGSILYENSVKGRFTISRDNAENTVYLQMNSLEPEDTGVYYCAGSIVMSTLARKYDYWGQGTLVTVSS | 0.0028 s⁻¹ | 1.3e-08 M | 100% | 7 nM | 96% | 0.12 nM |  | 
3 | nanobody NGS00003 (VHH, majority-rule consensus of an NGS cluster; One of the 28 randomly selected NGS clusters; source: E. coli, crude periplasmic extract (synthetic DNA); not shown: FLAG3, C-terminal, kept) VHH: EVQLVESGGGLVQPGGSLRLSCAASGFAFSRYWMYWVRQAPGKGLEWVSAISSSGSSTDYVDSVKGRFTVSRDNAKNTLYLQMNGLKSEDTAIYYCAKDTRQFIRSNYDNGGQGTLVTVSS |  |  |  |  |  |  | no binding | no binding
4 | nanobody NGS00009 (VHH, majority-rule consensus of an NGS cluster; One of the 28 randomly selected NGS clusters; source: E. coli, crude periplasmic extract (synthetic DNA); not shown: FLAG3, C-terminal, kept) VHH: EVQLVESGGGLVQAGDSLRLSCAASGRTFSTYALGWFRQAPGKEREFVAVISGRGGTTYYAGSVKGRLTISRDNAKNTVYLQMNSLKPEDTAVYYCAAGSDFGAVVDNRPDYWGQGTLVTVSS |  |  |  |  |  |  | binds | 
5 | nanobody 8G11 (VHH, From a llama immunised with rhRON; found by conventional screening and by NGS; source: E. coli, crude periplasmic extract; E. coli, purified; not shown: FLAG3, C-terminal, kept) VHH: EVQLVESGGGLVQAGGSLRLSCAASGGIFDNYAMGWIRQAPGKEREFVAGIRWSESSTYYAASVKGRFTISRDNAKNTVYLQMNSLKPEDTAVYSCAAWFWISSTWSYFSENEPNYRGPGTLVTVSS | 0.00097 s⁻¹ | 8.2e-08 M | 98% | 240 nM | 92% | 34 nM |  | 
6 | nanobody 8A09 (VHH, From a llama immunised with rhRON; found by conventional screening and by NGS; source: E. coli, crude periplasmic extract; E. coli, purified; not shown: FLAG3, C-terminal, kept) VHH: EVQLVKSGGGLVQAGGSLRLSCAASGRVAMGWFRQPPGKEREFVAAISASGATKYYADSVKGRFTIFRDNANTTVYLQMNSLKPEDTAVYYCAARLRWDSDYTSGGRYDYWGQGTQVTVSS | 0.00062 s⁻¹ | 4.9e-09 M | 100% | 16 nM | 98% | 0.093 nM |  | 

More lines, now with the values ahead:

Row | koff [1] | IC50 (M) inhibition of ERK phosphorylation induced by 1 nM MSP through RON on T-47D cells; purified nanobody, HTRF phospho-ERK [2] | maximum inhibition (efficacy) of MSP-induced ERK phosphorylation in T-47D cells [2] | IC50 [3] | maximum inhibition of MSP binding [3] | EC50 [4] | binding result [5] | binding result [6] | Binder
7 | 0.00064 s⁻¹ | 5.2e-09 M | 99% | 12 nM | 98% | 0.2 nM |  |  | nanobody 8F09 (VHH, From a llama immunised with rhRON; found by conventional screening and by NGS; source: E. coli, crude periplasmic extract; E. coli, purified; not shown: FLAG3, C-terminal, kept) VHH: EVQLVESGGGLVQAGGSLRLSCEASGRYVMGWFRQAPGKEREFVAVISRSGGSTNYADSVKGRFSVSRDSAKNTVYLQMNDLKPEDTAVYYCAASNRYGTNVLVTTALYDYWGQGTQVTVSS
8 | 0.0018 s⁻¹ | 9.6e-08 M | 96% |  |  | 1.3 nM |  |  | nanobody 2B09 (VHH, From a llama immunised with rhRON; found by conventional screening and by NGS; source: E. coli, crude periplasmic extract; E. coli, purified; not shown: FLAG3, C-terminal, kept) VHH: EVQLVESGGGLVQPGGSLRLSCAASGFSLDNYGIGWFRQAPGKEREGVSYISSTSLTRYYAASVKGRFTISRDNSKNTVYLQMNSLNPEDTAVYYCASTDRWPGIEWYRGEYDNWGQGTQVTVSS
9 | 0.0069 s⁻¹ | 3e-07 M | 92% | 250 nM | 90% | > 1000 nM |  |  | nanobody 2C06 (VHH, From a llama immunised with rhRON; found by conventional screening and by NGS; source: E. coli, crude periplasmic extract; E. coli, purified; not shown: FLAG3, C-terminal, kept) VHH: EVQLVESGGGLVQTGGSLRLSCARSGPTFSDYAMAWFRQARGKEREFVASITWIGGSTYYADSVKGRFTISRDSAKDTMYLQMNTLKPEDTADYYCAIARLGTYYGSYIRAYFNRGRYEYWGQGTQVTVSS
10 | 0.00051 s⁻¹ | 1.5e-08 M | 100% | 11 nM | 98% | 0.061 nM |  |  | nanobody 8D12 (VHH, From a llama immunised with rhRON; found by conventional screening and by NGS; source: E. coli, crude periplasmic extract; E. coli, purified; not shown: FLAG3, C-terminal, kept) VHH: EVQLVESGGGLVQAGGSLRLSCAASGRYAMGWFRQAPGKEREFVGVISKSGGSTYIADSVKGRFTISRHNAKSTAYLQMNNLRPEDTAVYYCAANGFLGTSGRRVDQYDYWGQGTQVTVSS
11 | 0.0023 s⁻¹ | 3.3e-08 M | 100% | 47 nM | 90% | 170 nM |  |  | nanobody 8C09 (VHH, From a llama immunised with rhRON; found by conventional screening and by NGS; source: E. coli, crude periplasmic extract; E. coli, purified; not shown: FLAG3, C-terminal, kept) VHH: EVQLVESGGGLVQAGGSLRLACAASGRISSTYRMGWFRQAPGKEREFVAASRWSGGGVLYTDSVKGRFTISTDNGKNMVYLQMNSLRPEDTAVYYCAGRNYGTTEYGYWGQGTQVTVSS
12 | 0.00046 s⁻¹ | 6e-09 M | 100% | 9.7 nM | 98% | 0.053 nM |  |  | nanobody 11F05 (VHH, From a llama immunised with rhRON; found by conventional screening and by NGS; source: E. coli, crude periplasmic extract; E. coli, purified; not shown: FLAG3, C-terminal, kept) VHH: EVQLVESGGGSVQAGGSLRLSCAASGRYRMGWFRQAPGKEREFVAVISASGGSTYYADSVKGRFTIARDNAKTMVYLQMNSLKPEDTAVYYCAAKVNYYGDYDLAQNYDYWGQGTQVTVSS
13 |  |  |  |  |  |  | no binding | no binding | nanobody NGS00027 (VHH, majority-rule consensus of an NGS cluster; One of the 28 randomly selected NGS clusters; source: E. coli, crude periplasmic extract (synthetic DNA); not shown: FLAG3, C-terminal, kept) VHH: EVQLVESGGGLVQVGASLRLSCRASGGTFDDYAMGWFRQRPGEEREFVAVISWNGAMTYYLNHIKGRFTISRDNAKNTAYLQMNNLEPGDTAVYYCAAERTLGWGVNPEAYASWGQGTLVTVSS
14 | 0.0037 s⁻¹ | 1.2e-07 M | 98% | 22 nM | 98% | 200 nM |  |  | nanobody 5C06 (VHH, From a llama immunised with rhRON; found by conventional screening and by NGS; source: E. coli, crude periplasmic extract; E. coli, purified; not shown: FLAG3, C-terminal, kept) VHH: EVQLVESGGGLVQPGGSLRLSCAASGFTLDYYAIGWFRQAPGKEREGVSCISSSDGSTYYADSVKGRFTISRDNAKNTVYLQMNSLKPEDTAVYYCATDLKRRCRDYARPQRGNDYWGQGTQVTVSS
